For one substance, fold binding compared to H3KC4me3 alone results are on record in PMC3770614.

The test has as its target nucleosomes decorated with both H3KC4me3 and H3K9ac or H3K14ac. As to the kind of experiment: pull-down; 130 pmol recombinant nucleosome (biotinylated 601 Widom DNA, weak TATA) on magnetic streptavidin beads, 500 µg HeLa nuclear extract, 2–3 hours at 4°C; 20 mM HEPES pH 7.5, 150 mM NaCl, 0.2 mM EDTA, 20% glycerol, 0.1% NP-40, 1 mM DTT; no competitor DNA; immunoblot of eluted proteins. (Immunoblotting shows a protein as a band on a membrane.)

For the substance “TFIID complex (from UniProt P21675 1-1893; Q6P1X5 1-1199; Q5VWG9 1-929; O00268 1-1085; Q15542 1-800; P49848 1-677; Q15545 1-349; Q7Z7C8 1-310; Q16594 1-264; Q12962 1-218; Q15544 1-211; Q16514 1-161; Q15543 1-124; P20226 1-339)”, the fold binding compared to H3KC4me3 alone lay within 1.2 to 1.4 fold.
